Key:
[1] = biological target: T1, LANA-C (C-terminus of LANA) (Kaposi's sarcoma-associated herpesvirus …, UniProt Q9QR71 918-1129); test: EMSA; 4 mM Mg2+, poly(dI-dC); EMSA: 20 mM Tris/HCl pH 7.4, 100 mM NaCl, 4 mM MgCl2, 0.25 mM EDTA, 1 mM DTT, 0.5 ug poly(dI-dC), 10% glycerol, 100 ng labeled oligo, 0-400 ng LANA-C, 20 min at room temperature; 6.5% native PAGE on ice; conditions: protein: recombinant, tags: His, chain copies: 2, annealed sense and antisense oligos
[2] = biological target: T1, LANA-C (C-terminus of LANA); test: EMSA; 4 mM Mg2+, poly(dI-dC); affinity similar to LBS1; EMSA: 20 mM Tris/HCl pH 7.4, 100 mM NaCl, 4 mM MgCl2, 0.25 mM EDTA, 1 mM DTT, 0.5 ug poly(dI-dC), 10% glycerol, 100 ng labeled oligo, 0-400 ng LANA-C, 20 min at room temperature; 6.5% native PAGE on ice; conditions: protein: recombinant; tags: His; chain copies: 2; annealed sense and antisense oligos

T1 sequence (Q9QR71 918-1129): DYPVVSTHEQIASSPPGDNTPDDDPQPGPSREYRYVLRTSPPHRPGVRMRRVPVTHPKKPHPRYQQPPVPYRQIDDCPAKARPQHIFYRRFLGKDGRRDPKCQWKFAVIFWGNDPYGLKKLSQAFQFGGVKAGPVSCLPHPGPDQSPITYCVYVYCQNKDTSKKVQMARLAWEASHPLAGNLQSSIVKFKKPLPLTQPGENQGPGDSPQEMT

B1: mLBS-like (scrambled LBS-like) (dsDNA)
DNA 1: TCCCCACCGGCTCCGCGCGTGGAGCCAGCTGCCAG
DNA 2: CTGGCAGCTGGCTCCACGCGCGGAGCCGGTGGGGA
**Q.** Does B1 bind [1]?
**A.** Result: no binding

B2: LBS (37 bp, TR DNA LBS1) (dsDNA)
DNA 1: GCGGAATTCGGCCCCATGCCCGGGCGGGAGGCGGGAT
DNA 2: ATCCCGCCTCCCGCCCGGGCATGGGGCCGAATTCCGC
**Q.** Does B2 bind ([1]; label: 5'-biotin)?
**A.** Result: binds

B3: LBS-like (IL-22R1 promoter -69 to -34) (dsDNA)
DNA 1: TCCCCGCCCCATGCCCGGGTGGAGCCAGCTGCCAG
DNA 2: CTGGCAGCTGGCTCCACCCGGGCATGGGGCGGGGA
**Q.** Does B3 bind [2]?
**A.** Result: binds

Reference: paper PMC3081348, “Kaposi's Sarcoma-Associated Herpesvirus-Encoded LANA Down-Regulates IL-22R1 Expression through a Cis-Acting Element within the Promoter Region”
